In patent US20120277143A1 (Janssen / Centocor, published 2012):

T1: human IL4 (human, UniProt P05112 25-153, biotinylated in the SPR and competition assays (sites not given))
T1 construct: Peprotech #200-04, mature protein produced in E. coli; also called hIL4; Interleukin 4
T1 sequence: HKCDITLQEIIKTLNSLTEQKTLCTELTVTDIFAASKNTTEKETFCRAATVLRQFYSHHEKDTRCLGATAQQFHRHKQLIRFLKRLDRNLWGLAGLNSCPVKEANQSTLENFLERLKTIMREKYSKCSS


Legend:
human IL4 [1] = biological target: T1, human IL4; assay: SPR ProteOn, biotin-IL4 on neutravidin chip, 1:1 fit
Experimental: Purified binders selected as “hits” were ranked by their affinity on a ProteOn XPR-36 instrument (Bio-Rad). ProteOn is an optical biosensor instrument that measures protein-protein interactions in real time, based on Surface Plasmon Resonance technology similar to Biacore (GE). A rapid experimental protocol was performed as follows: On a GLC sensor chip (Bio-Rad), Neutravidin (Thermo Scientific) was covalently immobilized to a density of >5000 RU using amine coupling chemistry as described by the manufacturer. On one flow cell, biotinylated IL4 (Peprotech) was immobilized to a level of 250 RU, while another flow cell was used as reference, with neutravidin immobilized only. […] The retrieved values were used to rank the AR proteins by their affinity.

human IL4 [2] = biological target: T1, human IL4; assay: Luminex competition, 67 pM biotin-IL4 binding to IL4RA-Fc beads
Experimental: For biotinylation of IL4, recombinant human IL4 (Peprotech) was biotinylated at a 4:1 ratio using EZ-Link NHS-LC-Biotin (Pierce, #21336) for 2 hours at RT. The protein was dialyzed in PBS overnight to remove excess biotinylation reagent. Competition binding for cynomologous IL4 (SEQ ID NO: 5) was performed using the isolated protein biotinylated in the same manner.
AR protein inhibition of IL4 binding to IL4 RA was assessed using IL4 RA-Fc (R&D Systems), comprising the Gly24-His232 which represents the ECD (SEQ ID NO: 5) fused to a human IgGl-Fc and therefor a disulfide linked homodimer. The protein was conjugated to carboxylated Luminex microspheres according to the manufacturer's protocol. For neutralization experiments, 5000 IL4RA-Fc conjugated beads in 50 μl were added to each well of a 96-well filter plate (Millipore). Biotinylated human IL4 was mixed with an appropriate dilution of AR protein in Luminex Assay Buffer (PBS, 1% BSA, pH 7.4) to give a final concentration of 67 pM IL4. The plate was incubated for 1 hour at RT in the dark on a plate shaker, set to shake vigorously to avoid bead aggregation. The plate was washed twice with 150 μl of wash buffer (PBS, 0.1% BSA, pH 7.4, 0.05% Tween-20) using a vacuum manifold followed by the addition of 50 μl of Streptavidin PE at 25 μg/ml and incubated at RT for 20 minutes. The plates were washed again and 150 μl of sheath fluid was added and the plate was placed on the shaker for 5 minute. Plates were read using a Luminex® 100 system; data were plotted as a function of AR protein concentration. IC₅₀ values were determined by fitting the data to the equation for sigmoidal dose response using PRISM software (GraphPAD PRISM) (Table 6).

human IL4 [3] = biological target: T1, human IL4; assay: cell-based or functional assay

| Kd (human IL4 [1]) [nM] | koff (human IL4 [1]) [s⁻¹] | kon (human IL4 [1]) [M⁻¹ s⁻¹] | IC50 (human IL4 [2]) [nM] | HEK Stat6 Inhibition IC50 (human IL4 [3]) [nM] | A549 TARC Inhibition IC50 (human IL4 [3]) [nM] | Type 1 Complex inhibition IC50 (human IL4 [3]) [nM] | Binder |
| --- | --- | --- | --- | --- | --- | --- | --- |
| 0.0712 | 0.000247 | 3.47e+06 | 0.0314 | 0.0033 |  |  | C06_26H2 (designed binder, ankyrin repeat protein; His-tagged, IMAC-purified) DLGKKLLEAARAGQDDEVRILMANGADVNAYDSSGDTPLHVAAIDGHLEIVEVLLKHGADVNASDASGDTPLHLAADFGHLKIVEVLLKHGADVNAEDMIGITPLHLAAYNGHLEIVEVLLKNGADVNASDVHGFTPLHLAAFIGHLGIVEVLLKYDADVNAQDKFGKTAFDISIDNRNEDLAEILQKLN |
| 0.0592 | 0.000149 | 2.52e+06 | 0.0306 | 0.0054 | 0.621 | 0.0066 | C06_13A10 (designed binder, ankyrin repeat protein; His-tagged, IMAC-purified) DLGKKLLEAARAGQDDEVRILMANGADVNVSDRIGNTPLHLAAVYVHLEIVEVLLKNGADVNALDDDGLTPLHLAAADGHLEIVEVLLKHGADVNATDSHVWTPLHLAAFFGHLEIVEVLLKYGADVNAQDKFGKTAFDISIDNGNEDLAEILQKLN |
| 0.101 | 9.73e-05 | 962000 | 0.0063 | 0.0015 |  |  | C06_19C3 (designed binder, ankyrin repeat protein; His-tagged, IMAC-purified) DLGKKLLEAARAGQDDEVRILMANGADVNATDDWGDTLLHLAATDGHLEIVEVLLKNGADVNAIDAMGMTPLHLAAVYGYLEIVEVLLKNGADVNAMDFSGFTPLHLAAFSGHLEIVEVLLKYGADVNAQDKFGKTAFDISIDNGNEDLAEILQKLN |
| 1.41 | 5.18e-05 | 36600 | 0.0176 | 0.0152 |  |  | C06_19F8 (designed binder, ankyrin repeat protein; His-tagged, IMAC-purified) DLGKKLLEAARAGQDDEVRILMANGADVNATDDWGDTLLHLAATDGHLEIVEVLLKNGADVNASDSQGLTPLHLAAYYGHLEIVEVLLKYGADVNANDHHGITPLHLAAFAGHLEIVEVLLKYGADVNAQDKFGKTAFDISIDNGNEDLAEILQKLN |
| 0.174 | 0.000126 | 725000 | 0.0148 | 0.0035 |  |  | C06_50E5 (designed binder, ankyrin repeat protein; His-tagged, IMAC-purified) DLGKKLLEAARAGQDDEVRILMANGADANATDDWGDTLLHLAATDGHLEIVEVLLKNGADVNAIDAMGMTPLHLAAVYGYLEIVEVLLKNGADVNAMDFSGFTPLHLAAFSGHLEIVEVLLKYGADVNAQDKFGKTAFDISIDNGNEDLAEILQKLN |
| 0.136 | 0.00014 | 1.03e+06 | 0.0744 | 0.003 |  |  | C06_17A11 (designed binder, ankyrin repeat protein; His-tagged, IMAC-purified) DLGKKLLEAARAGQDDEVRILMANGADVNAIDEWGDTPLHLAAIEGHLEIVEVLLKYGADVNASDAMGMTPLHLAAVYGYLEIVEVLLKNGADVNAMDFSGFTPLHLAAFSGHLEIVEVLLKYGADVNAQDKFGKTAFDISIDNGNEDLAEILQKLN |
| 0.4 | 0.000161 | 403000 | 0.0168 | 0.0032 |  |  | C06_54C2 (designed binder, ankyrin repeat protein; His-tagged, IMAC-purified) DLGKKLLEAARAGQDDEVRILMANGADVNATDDWGDTLLHLAATDGHLEIVEVLLKNGADVNAIDAMGMTPLHLAAVYGYLEIVEVLLKNGADVNAMDFSGFTPLHLTAFSGHLEIVEVLLKYGADVNAQDKFGKTAFDISIDNGNEDLAEILQKLN |
| 0.0427 | 5.98e-05 | 1.4e+06 | 0.0235 | 0.0016 | 0.262 | 0.0008 | C06_43G2 (designed binder, ankyrin repeat protein; His-tagged, IMAC-purified) DLGKKLLEAARAGQDDEVRILMANGADVNAKDVTGETPLHLASWEGHLEIVEVLLKHGADVNAQDLFGITPLHLAAATDGHLEIVEVLLKNGADVNATDSNGFTPLHLAASYGHLEIVDVLLKNGADVNAHDFDGFTPLHLAASWGHLEIVEVLLKYGADVNAQDKFGKTAFDISIDNGNEDLAEILQKLN |
| 0.0858 | 2.73e-05 | 318000 |  |  |  |  | C06_14A4 (designed binder, ankyrin repeat protein; His-tagged, IMAC-purified) DLGKKLLEAARAGQDDEVRILMANGADVNATDAWGLTPLHLAALLGHLEIVEVLLKHGADVNAHDETGFTPLHLAAVEGHLEIVEVLLKYGADVNASDILGRTPLHLAANFGHLEIVEVLLKYGADVNAQDKFGKTAFDISIDNGNEDLAEILQKLN |
|  |  |  | 0.0443 | 0.444 |  |  | C06_4A7 (designed binder, ankyrin repeat protein; His-tagged, IMAC-purified) DLGKKLLEAARAGQDDEVRILMANGADVNAEDDWGLTPLHLAAMLGHLEIVEVLLKYGADVNAKDDTGFTPLHLAAVEGHLEIVEVLLKYGADVNASDILGRTPLHLAANFGHLEIVEVLLKYGADVNAQDKFGKTAFDISIDNGNEDLAEILQKLN |
| 0.0075 | 5.43e-06 | 727000 | 0.0656 | 0.0193 | 0.325 | 0.0032 | C06_42A11 (designed binder, ankyrin repeat protein; His-tagged, IMAC-purified) DLGKKLLEAASVGQDDEVHILMANGADVNATDAWGLTPLHLAALLGHLEIVEVLLKHGADVNAHDETGFTPLHLAAVEGHLEIVEVLLKYGADVNASDILGRTPLHLAANFGHLEIVEVLLKHGADVNAQDKFGKTAFDISIDNGNEDLAEILQKLN |
| 0.0809 | 0.000163 | 2.02e+06 | 0.0205 | 0.004 | 0.288 | 0.0038 | C06_20B8 (designed binder, ankyrin repeat protein; His-tagged, IMAC-purified) DLGKKLLEAASAGQDDEVHILMANGADVNAVDHDGFTPLHLAAADGHLEIVEVLLKHGADVNADDNFGWTPLHLAAFFGHLEIVEVLLKHGADVNAKDQTGLTPLHLAAVDGHLEIVEVLLKHGADVNAQDKFGKTAFDISIDNGNEDLAEILQKLN |
| 0.0856 | 0.000138 | 1.62e+06 | 0.0353 | 0.0032 |  |  | C06_28D4 (designed binder, ankyrin repeat protein; His-tagged, IMAC-purified) DLGKELLEAASAGQDDEVHILMANGADVNAVDHDGFTPLHLAAADGHLEIVEVLLKHGADVNADDNFGWTPLHLAAFFGHLEIVEVLLKHGADVNAKDQTGLTPLHLAAVDGHLEIVEVLLKNGADVNAQDKFGKTAFDISIDNGNEDLAEILQKLN |
| 0.0978 | 0.000179 | 1.83e+06 | 0.0459 | 0.0068 |  |  | C06_42C7 (designed binder, ankyrin repeat protein; His-tagged, IMAC-purified) DLGKKLLEAASAGQDDEVRILMANGADVNAVDHDGFTPLHLAAADGHLEIVEVLLKHGADVNADDNFGWTPLHLAAFFGHLEIVEVLLKHGADVNAKDQTGLTPLHLAAVDGHLEIVEVLLKHGADVNAQDKFGKTAFDISIDNGNEDLAEILQKLN |
| 0.0436 | 3.77e-05 | 864000 | 0.0203 | 0.0011 | 0.231 | 0.0017 | C06_44C12 (designed binder, ankyrin repeat protein; His-tagged, IMAC-purified) DLGKKLLEAASAGQDDEVHILMANGADVNALDDSGYTPLHLAAEDGHLEIVEVLLKHGADVNAADRMGDTPLHLAAFVGHLEIVEVLLKYGADVNAVDLAGVTPLHVAAFYGHLEIVEVLLKYGADVNAQDKFGKTAFDISIDNGNEDLAEILQKLN |
|  |  |  | 0.0717 | 0.241 |  |  | C06_24H1 (designed binder, ankyrin repeat protein; His-tagged, IMAC-purified) DLGKKLLEAARAGQDDEVRILMANGADVNAHDNSGFTPLHLAAEIGHLEIVEVLLKYGADVNAADRMGDTPLHLAAFVGHLEIVEVLLKYGADVNAVDLAGVTPLHVAAFYGHLEIVEVLLKNGADVNAQDKFGKTAFDISIDNGNEDLAEILQKLN |
